assay: yeast display, Sf9 membrane polyspecificity reagent, FACS + sequencing; frameworks hold sequencing errors
Summary of the method: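 Using colony PCR, genes from sorted yeast display clones were amplified, then sequenced on MiSeq at 2 × 250 and filtered by CDR length. The clones had been stained with 10% biotinylated, detergent-solubilized Sf9 membrane reagent for 1 hour at 4 °C and sorted by FACS into low and high (top ~1%) gates on anti-HA and streptavidin fluorescence. Polyreactivity labels come from the gate of origin.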

| Sequence | polyreactivity (PSR sort gate) |
| --- | --- |
| QVHLVESGGGLVQAGGSLRLSCAASGRTFNVYAMGWYRQAPGKERELVASISSSDTTNYADSVKGRFTISRDNAKNTVYLQMNSLKPEDTAVYYCAADYTPDLLSKVDYWGQGTQVTVSS | low polyreactivity |
| QVHLVESGGGLVQAGGSLRLSCAASGRTFPYNAMGWYRQAPGKERELVATIDSSGTRTFYADSVKGRFTISRDNANNTVYLQMNSLKPEDTAVYYCAKGWYAYKLYGYDYWGQGTQVTVSS | low polyreactivity |
| QVHLVESGGGLVQAGGSLRLSCAASGRTFRLYAMAWSRQAPGKERELVARISRGGSTYYADSVKGRFTISRDNAKNTVYLLMNSLKREDTAVYYCAAEGWGLSHRYDYWGQGTQVTVSS | high polyreactivity |
| QVHLVESGGGLVQAGGSLRLSCAASGRTFSRYAMGWYRQAPGKERELVAGISLSGTSTYYADSVKGRFTISRDNAKNTVYLQMNSLIPVVTAVYYCATYSSYIPYGFDYWGQGTQVTVSS | high polyreactivity |
| QVHLVESGGGLVQAGGSLRLSCAASGRTFVYYAMGWYRQAPGKERELVAAITSVGSTYYADSVKGRFTISRDNAKNTVYLQMNSLKPEDTAVYYCAKDTWAYPYYWPYDDYWGQGTQVTVSS | low polyreactivity |
| QVHLVESGGGLVQAGGSLRLSCAASGRTLGGNAMGWYRQAPGKERELDAAITNSASTYADSVKGRFTISRDNAKNTVYLQMNSLKPEDTAVYYCNAPDPSDQHGDYWGQGTQVTVSS | low polyreactivity |
| QVHLVESGGGLVQAGGSLRLSCAASGSIFGPNAMGWYRPAPGKERELVAAINGGTGTFYADSVKGRFTISRDNAKHTVYLQMNSLKPEDTAVYYCAADYGTHYFVRYYYWGQGTEVTVSS | high polyreactivity |
| QVHLVESGGGLVQAGGSLRLSCAASGSIFGPYAMGWYRQAPGKERELVAAITYRGDSTYYADSVKGRFTISRDYAKNTVYLQINSLKPEDTAVYYCAADYFYANYDYWGQGTQVTVSS | high polyreactivity |
| QVHLVESGGGLVQAGGSLRLSCAASGSIFGRYAMGWYRQAPGKERELVANITSGDSTNYADSVKGRFTISRDNAKNTVYLQMNSLKPEDTAVYYCAAYRIGQYDYWGQGTQVTVSS | high polyreactivity |
| QVHLVESGGGLVQAGGSLRLSCAASGSIFGTNALGWYRQAPGKERELVAAINWSGGTTYYADSVKGRFTISRDNAKNTVYLQMNTLKPEDTAVYYCATFFFVLPPTRFDSWGQGTQVTVSS | low polyreactivity |
| QVHLVESGGGLVQAGGSLRLSCAASGSIFINNTMGWYRQAPGKERELVAAISITGGSTYYADSVKGRFTISRDNAKNTVYLQMNSLKPEDTAVYYCAADPLQLYDYNYWGQGTQVTVSS | low polyreactivity |
| QVHLVESGGGLVQAGGSLRLSCAASGSIFKPYTMRWYRQAPGTERELVAVITRRGGSTYYADSVKGRFTISRDNAKNTVYLQMNSLKPEDTAVYYCAAEYDYYGWWNDYWGQGTQVTVSS | high polyreactivity |
| QVHLVESGGGLVQAGGSLRLSCAASGSIFLWYTMGWYRQAPGKERELVAAISRTGGSTYYADSVKGRFTISRDNAKNTVYLQMNSLKPEDTAVYYCAASLYSITRARYDYWGQGTQVTVSS | high polyreactivity |
| QVHLVESGGGLVQAGGSLRLSCAASGSIFRYNVKAWYRQAPGNERQFVAANTARGGSTYYPESVKVRFTISRDYAKNTVYRQMISMKPEDTAVYYCATVSQQSRSLGIDRIYYWGQGTQVTVSS | high polyreactivity |
| QVHLVESGGGLVQAGGSLRLSCAASGSIFSGNTMGWYRQAPGKERELVAAISGGGSTNYADSVKGRFTISRDNAKNTVYLQMNSLKPEDTAVYYCAKDWSLGASRMDYWGQGTQVTVSS | low polyreactivity |
| QVHLVESGGGLVQAGGSLRLSCAASGSIFSWYAMGWYRQAPGKEWELVAAITWSGGSTYYADSVKGRFTISRDTAKNTVYLQMNSLKPEDTAVYYCAASYDIYGNYRRYDYWGQGTQVTVSS | high polyreactivity |

| Sequence | polyreactivity (PSR sort gate) |
| --- | --- |
| QVHLVESGGGLVQAGGSLRLSCAASGSIFVENAMGWYRQPPGKEREFVAAITRSGGSTYYADSVKGRFTISRDNAKNTVYLQMNSLKPEDTAVYYCAARIWDEQPAAGYYWGQGTQVTVSS | low polyreactivity |
| QVHLVESGGGLVQAGGSLRLSCAASGSIFYINAMGWYRQPPGKDREFVARISWRSGSTSYADSVKGRFTISRDNAKNTVYLQMNSLKPEDTAVYYCNAGVFANDNGGRRDQFTWEYEYWGQGTQVTVSS | low polyreactivity |
| QVHLVESGGGLVQAGGSLRLSCAASGSIFYSYAMGWYRQAPGKERELVASINWSGASTYYADSVKGRFTISRDNAKNTVYLQMNSLKPEDTAVYYCAADWWGYDGRYDYWGQGTQVTVSS | high polyreactivity |
| QVHLVESGGGLVQAGGSLRLSCAASGSIFYWNAMGWYRQAPGKESELVATISSRGGRTSYADSVKGRFTLSRDNAKNTVYLQMNSLQPEDTAVDYCAKSIDGWYWRRRRYDYWGQGTQVTVSS | low polyreactivity |
| QVHLVESGGGLVQAGGSLRLSCAASGSILVWYAMGWYRHAPGKERELVAAISQSGGRTYYADSVKGRFTISRDNAKNNVYLQMNSLKPEDTAVYYGAAFYTSYWGYDYDYWGQGTQVTVSS | low polyreactivity |
| QVHLVESGGGLVQAGGSLRLSCAASGSIYLITAMGWYRQAPGKERELVAAISSRGTSTYYADSVKGRFTISRDNAKNTVYFQMNSLKAEDTAVYYCAARAIRANGYDYWGQCTQVTVSS | high polyreactivity |
| QVHLVESGGGLVQAGGSLRLSCAASGSTFAKNAMGWYRQAPGKERELVAAITRSAGSTYYADSVKGRFTISRDNAKNTVYLQMNSLKPEDTAVYYCDRRVSGTPWYGYWGQGTQVTVSS | high polyreactivity |
| QVHLVESGGGLVQAGGSLRLSCAASGSTFAPNAMGWYRQAPGKERELVASIRRGGSTHYADSVKGRFTISRDNAKNSVYLQMNSLKPEDTAVYYCATDQDPCSWYRYDYWGQGTQVTVSS | low polyreactivity |
| QVHLVESGGGLVQAGGSLRLSCAASGSTFDDYVMGWYRQAPGKESELVAAITRSGTSTYYADSVKGRFTISRDNAKNTVYLQMNSLKPEETAVYYCAAGPFGLKPYTLGYNYWGQGTQVTVSS | high polyreactivity |
| QVHLVESGGGLVQAGGSLRLSCAASGSTFGVYAMGWYRQAPAKERELVAAISSSTGSTYYADSVKGRFTISRDNEKNTVYLQMNSLKPEDTAVYFCAAAGYGKVRGDYWGQGSQVTVSS | low polyreactivity |
| QVHLVESGGGLVQAGGSLRLSCAASGSTFGYYAMGWYRQAPGKEREFVAAISSSGGSTYYADSVKGRFTISRDNAKNTVYLQMNSLKPEDTAVYYCARVGFPGFYWGQGTQVTVSS | high polyreactivity |
| QVHLVESGGGLVQAGGSLRLSCAASGSTFRFYAMGWYRQAPGKERELVATISRTGSTNYADSVKGRFTISRDNAKNTVYLQMNSLKPEDTAVYYCAAQRRRYPGYVQDDYWGQGTQVTVSS | high polyreactivity |
| QVHLVESGGGLVQAGGSLRLSCAASGSTFRSNAMGWYRQAPGKERELVASITSRGGSTYYADSVKGRFTISRDNAKNTVYLQMNSLKPEDTAVYYCATARSYLTYSYHYDYWGQGTQVTVSS | low polyreactivity |
| QVHLVESGGGLVQAGGSLRLSCAASGSTFSGNGMGWYRQAPGKERELVAAINWYGGTTYYADSVKGRFTISRDNAKNTVYLQMNSLKQEDTAVYYCARESTLTYYSDDFDYWGQGTQVTVSS | low polyreactivity |
| QVHLVESGGGLVQAGGSLRLSCAASGSTFVANTMRWSRQAPGKERELVASITSGDSTNYADSVKGRFTISRDNAKNTVYLQMNSLKPEDTAVYYCSAETVWYYVGGQLIYYSWGQGTQVTVSS | low polyreactivity |
| QVHLVESGGGLVQAGGSLRLSCAASGSTFYNNAMGWYRQAPGKERELVAAINYSGGSTNYADSVKGRFTISRDNAKNTVYLQMNILKPEDTAVYYCATDLHWLVTKYGYWGQGTQVTVSS | low polyreactivity |
